Measured values: PMC10572825

Molecular target: CXCL12 (Homo sapiens) (UniProt P48061)
Test: isothermal fluorescence titration
Details: FITC-labelled tenascin-C

Chain of CXCL12 (Homo sapiens) (P48061 22-89): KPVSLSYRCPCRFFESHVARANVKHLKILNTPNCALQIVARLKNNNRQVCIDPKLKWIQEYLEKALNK

Kd: 1010 nM
Substance: Tenascin-C, Q80YX1
